Broadly, the stoichiometry N is the number of molecules, sites or subunits per partner or assembly.

Drawing on article PMC3565045, this text covers stoichiometry N for 1 substance.

This test concerns the target Cryptococcus neoformans acetate kinase (Cryptococcus neoformans). Description: crystal structure.

Regarding “Cryptococcus neoformans acetate kinase (enzyme)”, the stoichiometry N worked out at 2.
